Data published in publication doi:10.1101/2025.07.23.666269 (bioRxiv, 2025).

How the values were obtained:
[1] = target: recombinant ɸ6 protein P2 (cystovirus ɸ6) (UniProt P11124); test: MST
[2] = target: RNA-dependent RNA polymerase P2 of cystovirus ɸ6 (in virion-derived particles) (cystovirus ɸ6) (UniProt P11124); test: cryo-EM structure
[3] = target: minor protein P7 of cystovirus ɸ6 (in virion-derived particles) (cystovirus ɸ6); test: cryo-EM structure
[4] = target: recombinant ɸ6 protein P7, full length (cystovirus ɸ6); test: asymmetric flow field flow fractionation
[5] = target: recombinant ɸ6 protein P2 (cystovirus ɸ6) (UniProt P11124); test: asymmetric flow field flow fractionation
cryo-EM structure = target: the molecule itself; test: cryo-EM structure
[6] = target: T1, recombinant ɸ6 protein P1 (cystovirus ɸ6, UniProt P11126 1-769); test: co-sedimentation
T1 sequence (looked up): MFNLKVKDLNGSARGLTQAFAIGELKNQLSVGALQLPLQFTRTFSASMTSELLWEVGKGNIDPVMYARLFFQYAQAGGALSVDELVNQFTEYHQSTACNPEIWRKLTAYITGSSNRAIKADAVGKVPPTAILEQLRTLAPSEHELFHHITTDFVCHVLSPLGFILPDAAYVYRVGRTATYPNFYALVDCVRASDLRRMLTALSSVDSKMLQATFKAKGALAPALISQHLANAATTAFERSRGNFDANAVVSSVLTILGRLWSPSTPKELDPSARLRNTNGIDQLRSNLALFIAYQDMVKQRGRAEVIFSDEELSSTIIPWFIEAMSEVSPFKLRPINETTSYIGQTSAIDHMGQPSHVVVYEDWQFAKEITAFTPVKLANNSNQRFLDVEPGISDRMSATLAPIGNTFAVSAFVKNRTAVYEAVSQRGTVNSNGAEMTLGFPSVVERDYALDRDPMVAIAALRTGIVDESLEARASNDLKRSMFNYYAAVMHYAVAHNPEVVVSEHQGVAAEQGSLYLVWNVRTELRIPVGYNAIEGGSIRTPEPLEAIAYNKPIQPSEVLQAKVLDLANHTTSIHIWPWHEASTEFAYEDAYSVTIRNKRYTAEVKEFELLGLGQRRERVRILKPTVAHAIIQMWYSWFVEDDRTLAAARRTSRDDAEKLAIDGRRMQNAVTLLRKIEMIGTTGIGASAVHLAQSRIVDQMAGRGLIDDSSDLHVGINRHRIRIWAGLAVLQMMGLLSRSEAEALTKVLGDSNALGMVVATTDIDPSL

With “C-terminally truncated P7 comprising residues 2–115 (domain or fragment)” the Kd [1] was 15.1 µM.

With “minor protein P7 of cystovirus ɸ6 (in virion-derived particles) (natural protein)” the stoichiometry N (P7 dimers per P2) [2] was 4 and the stoichiometry N [3] was 4.

Work on “recombinant ɸ6 protein P7, full length (natural protein)” yielded a stoichiometry N [4] of 2, a stoichiometry N (P7 dimer per P2 monomer) [5] of 1 and a Kd [1] of 1.3 µM.

B1: major capsid protein P1 of cystovirus ɸ6 (in virion-derived particles) (natural protein)
chain: MFNLKVKDLNGSARGLTQAFAIGELKNQLSVGALQLPLQFTRTFSASMTSELLWEVGKGNIDPVMYARLFFQYAQAGGALSVDELVNQFTEYHQSTACNPEIWRKLTAYITGSSNRAIKADAVGKVPPTAILEQLRTLAPSEHELFHHITTDFVCHVLSPLGFILPDAAYVYRVGRTATYPNFYALVDCVRASDLRRMLTALSSVDSKMLQATFKAKGALAPALISQHLANAATTAFERSRGNFDANAVVSSVLTILGRLWSPSTPKELDPSARLRNTNGIDQLRSNLALFIAYQDMVKQRGRAEVIFSDEELSSTIIPWFIEAMSEVSPFKLRPINETTSYIGQTSAIDHMGQPSHVVVYEDWQFAKEITAFTPVKLANNSNQRFLDVEPGISDRMSATLAPIGNTFAVSAFVKNRTAVYEAVSQRGTVNSNGAEMTLGFPSVVERDYALDRDPMVAIAALRTGIVDESLEARASNDLKRSMFNYYAAVMHYAVAHNPEVVVSEHQGVAAEQGSLYLVWNVRTELRIPVGYNAIEGGSIRTPEPLEAIAYNKPIQPSEVLQAKVLDLANHTTSIHIWPWHEASTEFAYEDAYSVTIRNKRYTAEVKEFELLGLGQRRERVRILKPTVAHAIIQMWYSWFVEDDRTLAAARRTSRDDAEKLAIDGRRMQNAVTLLRKIEMIGTTGIGASAVHLAQSRIVDQMAGRGLIDDSSDLHVGINRHRIRIWAGLAVLQMMGLLSRSEAEALTKVLGDSNALGMVVATTDIDPSL
With B1 the “stoichiometry N” value (cryo-EM structure) was 2.

B2: packaging NTPase P4 of cystovirus ɸ6 (in virion-derived particles) (enzyme, UniProt P11125 2-332, looked up)
chain: PIVVTQAHIDRVGIAADLLDASPVSLQVLGRPTAINTVVIKTYIAAVMELASKQGGSLAGVDIRPSVLLKDTAIFTKPKAKSADVESDVDVLDTGIYSVPGLARKPVTHRWPSEGIYSGVTALMGATGSGKSITLNEKLRPDVLIRWGEVAEAYDELDTAVHISTLDEMLIVCIGLGALGFNVAVDSVRPLLFRLKGAASAGGIVAVFYSLLTDISNLFTQYDCSVVMVVNPMVDAEKIEYVFGQVMASTVGAILCADGNVSRTMFRTNKGRIFNGAAPLAADTHMPSMDRPTSMKALDHTSIASVAPLERGSVDTDDRNSAPRRGANFSL
B2 was tested, and the “stoichiometry N” value (cryo-EM structure) was 6.

B3: outer layer protein P8 of cystovirus ɸ6 (in virion-derived particles) (natural protein)
chain: MLLPVVARAAVPAIESAIAATPGLVSRIAAAIGSKVSPSAILAAVKSNPVVAGLTLAQIGSTGYDAYQQLLENHPEVAEMLKDLSFKADEIQPDFIGNLGQYREELELVEDAARFVGGMSNLIRLRQALELDIKYYGLKMQLNDMGYRS
B3 was tested, and the “stoichiometry N” value (cryo-EM structure) was 3.

B4: recombinant ɸ6 protein P2 (enzyme, cystovirus ɸ6)
chain: PRRAPAFPLSDIKAQMLFANNIKAQQASKRSFKEGAIETYEGLLSVDPRFLSFKNELSRYLTDHFPANVDEYGRVYGNGVRTNFFGMRHMNGFPMIPATWPLASNLKKRADADLADGPVSERDNLLFRAAVRLMFSDLEPVPLKIRKGSSTCIPYFSNDMGTKIEIAERALEKAEEAGNLMLQGKFDDAYQLHQMGGAYYVVYRAQSTDAITLDPKTGKFVSKDRMVADFEYAVTGGEQGSLFAASKDASRLKEQYGIDVPDGFFCERRRTAMGGPFALNAPIMAVAQPVRNKIYSKYAYTFHHTTRLNKEEKVKEWSLCVATDVSDHDTFWPGWLRDLICDELLNMGYAPWWVKLFETSLKLPVYVGAPAPEQGHTLLGDPSNPDLEVGLSSGQGATDLMGTLLMSITYLVMQLDHTAPHLNSRIKDMPSACRFLDSYWQGHEEIRQISKSDDAILGWTKGRALVGGHRLFEMLKEGKVNPSPYMKISYEHGGAFLGDILLYDSRREPGSAIFVGNINSMLNNQFSPEYGVQSGVRDRSKRKRPFPGLAWASMKDTYGACPIYSDVLEAIERCWWNAFGESYRAYREDMLKRDTLELSRYVASMARQAGLAELTPIDLEVLADPNKLQYKWTEADVSANIHEVLMHGVSVEKTERFLRSVMPR
modifications: RED fluorescent dye NT-647-NHS (Monolith Protein Labeling Kit RED-NHS), in the MST only
B4: binds [6].
